{"source": "patent CN111410689A", "about": "(UNIV CHONGQING TECHNOLOGY, dated 2020)", "biological_target": "T1, HPV18E7蛋白 (in HeLa cells and HPV18-positive cervical adenocarcinoma tissue) (HPV18, UniProt P06788 1-105)", "T1 construct": "whole, on cells; Native intracellular protein in cells, tissue sections or total lysate; also called HeLa细胞总蛋白中的HPV18E7蛋白", "T1 sequence": "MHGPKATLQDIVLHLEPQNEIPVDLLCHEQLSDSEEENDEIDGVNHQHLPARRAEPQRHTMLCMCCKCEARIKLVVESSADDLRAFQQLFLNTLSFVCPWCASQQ", "experiment": "immunocytochemistry on HeLa cells (HPV18 positive), DAB"}
{"binder": "抗HPV16E7蛋白单抗69E2 (antibody, mouse IgG2a, kappa, V domains shown, Mouse IgG2a from hybridoma, purified from ascites; also called HPV16E7-69E2; CCTCC NO:C2019181) VH: QVQLQQSGPEVVRPGVSVKISCKGSGYTFTDYAMHWVKQSHAKSLEWIGVISTYNGNTNYNQKFKGKATVTVDKSSSTAYMELARLTSEDSAIYYCARRGFGNSWFAYWGQGTLVTVSA VL: ENVLTQSPAIMSASPGGKVTMTCSASSGVSYMHWYQQKSSTSPKLWIYDTSNLASGVPGRFSGSGSGNSYSLTISSMEAEDVATYYCFQGSGYPFTFGSGTKLEIRR", "values": [{"measurement": "binding result", "result": "no binding (tested: 7.8125ng/孔到1μg/孔)"}]}
